Here are results for four molecules from PMC3518660 (Journal of immunology (Baltimore, Md. : 1950), 2012).

The target of test [1] is T1, recombinant soluble integrin αvβ3 (UniProt P06756 31-987; P05106 27-718). As to the kind of experiment: SPR.
Test [2] has as its target T1, recombinant soluble integrin αvβ3. As to the kind of experiment: SPR. The source holds these as a separate data set. (SPR reads the build-up and loss of mass on a sensor chip optically.)
For test [3] the target is unchanged. As to the kind of experiment: ELISA. A general note: In an ELISA, binding on a coated surface is turned into a signal by an enzyme label.

Where two headings read alike, the source gives them in different places.

T1 sequence (P06756 31-987, chain 1 of 2): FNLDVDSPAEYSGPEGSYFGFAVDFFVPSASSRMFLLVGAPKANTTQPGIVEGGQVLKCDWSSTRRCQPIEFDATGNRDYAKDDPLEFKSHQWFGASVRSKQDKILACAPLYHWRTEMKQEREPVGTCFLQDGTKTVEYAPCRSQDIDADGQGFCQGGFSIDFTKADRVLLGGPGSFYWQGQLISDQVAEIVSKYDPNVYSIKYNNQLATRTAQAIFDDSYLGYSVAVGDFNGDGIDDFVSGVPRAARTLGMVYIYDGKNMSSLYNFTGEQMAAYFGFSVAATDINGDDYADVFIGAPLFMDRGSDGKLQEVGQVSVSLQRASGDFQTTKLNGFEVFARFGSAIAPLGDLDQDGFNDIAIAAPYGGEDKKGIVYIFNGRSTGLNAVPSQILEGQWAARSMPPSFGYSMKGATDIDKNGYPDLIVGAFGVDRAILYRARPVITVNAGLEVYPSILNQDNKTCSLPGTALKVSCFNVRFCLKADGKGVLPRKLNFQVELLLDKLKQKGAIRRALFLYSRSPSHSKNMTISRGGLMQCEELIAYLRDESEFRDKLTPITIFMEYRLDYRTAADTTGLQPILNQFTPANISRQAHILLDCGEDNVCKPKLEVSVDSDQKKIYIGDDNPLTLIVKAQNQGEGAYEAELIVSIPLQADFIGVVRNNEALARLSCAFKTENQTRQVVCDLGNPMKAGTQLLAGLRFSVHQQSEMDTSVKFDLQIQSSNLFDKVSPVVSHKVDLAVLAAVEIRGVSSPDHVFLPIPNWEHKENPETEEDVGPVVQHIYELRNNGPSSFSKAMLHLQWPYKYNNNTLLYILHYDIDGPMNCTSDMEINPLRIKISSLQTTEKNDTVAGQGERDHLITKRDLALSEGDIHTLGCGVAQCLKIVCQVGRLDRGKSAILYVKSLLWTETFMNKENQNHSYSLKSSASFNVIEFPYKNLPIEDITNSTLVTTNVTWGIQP
T1 sequence (P05106 27-718, chain 2 of 2): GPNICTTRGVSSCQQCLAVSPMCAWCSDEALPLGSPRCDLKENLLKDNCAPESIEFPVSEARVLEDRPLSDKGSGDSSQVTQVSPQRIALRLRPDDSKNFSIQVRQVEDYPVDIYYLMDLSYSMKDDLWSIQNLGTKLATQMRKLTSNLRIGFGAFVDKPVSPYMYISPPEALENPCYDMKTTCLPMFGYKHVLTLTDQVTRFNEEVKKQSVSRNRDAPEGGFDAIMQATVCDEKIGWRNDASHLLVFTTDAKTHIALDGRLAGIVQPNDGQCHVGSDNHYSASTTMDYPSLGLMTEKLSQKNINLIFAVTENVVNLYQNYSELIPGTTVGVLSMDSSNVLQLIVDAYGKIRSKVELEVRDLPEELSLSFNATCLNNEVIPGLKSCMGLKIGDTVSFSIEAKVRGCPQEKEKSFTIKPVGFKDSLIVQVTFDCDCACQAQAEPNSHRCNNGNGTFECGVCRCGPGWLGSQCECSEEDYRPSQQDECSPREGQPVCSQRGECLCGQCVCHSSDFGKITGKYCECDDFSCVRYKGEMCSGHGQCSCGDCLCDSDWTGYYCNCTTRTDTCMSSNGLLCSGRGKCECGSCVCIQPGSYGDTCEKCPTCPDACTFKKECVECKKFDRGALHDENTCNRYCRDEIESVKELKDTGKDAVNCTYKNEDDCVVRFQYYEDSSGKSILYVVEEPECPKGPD

B1: chemokine domain of fractalkine (FKN-CD), wild type, 6His-tagged (domain or fragment, human)
chain: QHHGVTKCNITCSKMTSKIPVALLIHYQQNQASCGKRAIILETRQHRLFCADPKEQWVKDAMQHLDRQAAALTRNG
In general, Kd refers to the equilibrium constant for the complex coming apart. As to B1, the Kd amounted to 11 nM in test [1] and 6.9 nM in test [2].

B2: FKN-CD Lys54/Lys59 to Ala mutant (K54A/K59A) (domain or fragment, human)
chain: QHHGVTKCNITCSKMTSKIPVALLIHYQQNQASCGKRAIILETRQHRLFCADPAEQWVADAMQHLDRQAAALTRNG
Turning to B2, the binding result in test [3] is recorded as “binds”.

B3: FKN-CD Lys54 to Ala mutant (K54A) (domain or fragment, human)
chain: QHHGVTKCNITCSKMTSKIPVALLIHYQQNQASCGKRAIILETRQHRLFCADPAEQWVKDAMQHLDRQAAALTRNG
Regarding B3, the binding result in test [3] is given as “binds”.

B4: FKN-CD Arg47 to Ala mutant (R47A) (domain or fragment, human)
chain: QHHGVTKCNITCSKMTSKIPVALLIHYQQNQASCGKRAIILETRQHALFCADPKEQWVKDAMQHLDRQAAALTRNG
For B4, the binding result in test [3] is recorded as “binds”.
